The results in this text go back to article PMC11179954 (MedComm, 2024).

Some results are limits rather than exact numbers.

Test [1] has as its target T1, wild-type human Y1R (NPY1R-WT, hY1R) (Homo sapiens, UniProt P25929).
T1 construct: Flag; expressed in transfected cells; host or cells: HEK293
T1 sequence (P25929 1-384): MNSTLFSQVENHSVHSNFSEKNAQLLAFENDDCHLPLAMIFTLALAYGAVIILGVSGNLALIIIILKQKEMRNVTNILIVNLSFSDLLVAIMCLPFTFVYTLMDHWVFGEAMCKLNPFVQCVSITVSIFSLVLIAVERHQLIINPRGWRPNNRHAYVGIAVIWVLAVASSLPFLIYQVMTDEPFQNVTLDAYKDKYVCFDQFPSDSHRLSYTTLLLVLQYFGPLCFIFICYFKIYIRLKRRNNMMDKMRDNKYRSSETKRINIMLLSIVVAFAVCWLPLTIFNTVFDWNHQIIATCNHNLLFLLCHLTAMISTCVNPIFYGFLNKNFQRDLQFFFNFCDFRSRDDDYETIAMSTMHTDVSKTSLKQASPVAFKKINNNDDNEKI
Briefly: GloSensor cAMP inhibition assay in HEK293 cells. As to conditions: wildtype Y1R, Figure 1B. It is filed as cell-based.
Description: Following a subsequent 1 -hour incubation, ligands, diluted in assay buffer with forskolin, were introduced to the cells. Subsequently, the cells wer e incubated for 30 minutes in a light-free environment at room temperature Fluorescence signals were measured using a Synergy H1 microplate reader (BioTek). GraphPad Prism 8 (GraphPad Software) was used to processing data using the nonlinear regression dos e-response function. Results were represented as the mean ± s.e.m. from three independent experiments . All experiments were repeated at least three times.

In test [2] the target is T2, wildtype Y2R (Homo sapiens, UniProt P49146).
T2 construct: Flag; expressed in transfected cells; host or cells: HEK293
T2 sequence (P49146 1-381): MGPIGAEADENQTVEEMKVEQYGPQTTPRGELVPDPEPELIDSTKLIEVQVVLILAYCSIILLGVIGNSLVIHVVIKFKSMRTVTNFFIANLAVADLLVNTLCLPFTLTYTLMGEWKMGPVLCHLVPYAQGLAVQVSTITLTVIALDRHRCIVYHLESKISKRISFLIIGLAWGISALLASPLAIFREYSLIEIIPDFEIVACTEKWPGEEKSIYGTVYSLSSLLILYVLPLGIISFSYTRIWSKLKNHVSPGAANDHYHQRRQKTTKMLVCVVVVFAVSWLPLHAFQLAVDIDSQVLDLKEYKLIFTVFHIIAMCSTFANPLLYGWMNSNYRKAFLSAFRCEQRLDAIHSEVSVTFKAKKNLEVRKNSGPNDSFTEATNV
In words: GloSensor cAMP inhibition assay in HEK293 cells. It is filed as cell-based. Particulars: Figure 1C. As for the experimental part:
EM density map11, the coordinates were subsequently manual adjustment and rebuilding in COOT 12. Real space refinement was performed in Phenix program 13.
The model statistics were finally validated by using MolProbity 14 in Phenix. The refinement statistics are presented in supplemental information table S1. UCSF Chimera11, Chimera X 15 and PyMOL (https://pymol.org/2/) were used to generate the […]
Cyclic adenosine 3′,5′-monophosphate (cAMP) assay.
To measure the ligand-induced Gi signaling activation potency of wild -type NPYR or mutants, the GloSensor cAMP assay (Promega) was conducted following a previous study. Briefly, HEK293 cells were co -transfected with the GloSensor plasmid and various NPYR constructs or pcDNA3.1 (as a negative control) plasmids using Polyethylenimine Linear (PEI, YEASEN) in 6 -well plates. Following a 4-hour incubation period, the cells were transferred to fresh medium. After 24 hours, they were harvested and suspended in assay buffer ( HBSS with 10 mM HEPES, pH 7.4), supplemented with a 3% v/v dilution of D -Luciferin-Potassium Salt (YEASEN).
Following a subsequent 1 -hour incubation, ligands, diluted in assay buffer with forskolin, were introduced to the cells. Subsequently, the cells wer e incubated for 30 minutes in a light-free environment at room temperature […] signals were measured using a Synergy H1 microplate reader (BioTek). […]

Turning to “NPY^3−36: N-terminal truncated NPY variant, processed by dipeptidyl peptidase IV”, the “reduced Y1R activation compared to NPY” value in test [1] is reported as more than 50 folds. In addition, in test [2], the “Y2R activation compared with NPY (in words)” value is on record as “slightly reduced Y2R activation”.
For the substance NPY^13−36: N-terminally truncated NPY, in test [1], the “reduced Y1R activation compared to NPY” value is on record as more than 50 folds.
